Reference: PMC11711466

Key:
[1] = biological target: hORC1-5;hORC6;hCDC6;hCDT1deltaN;hMCM2-7 (human;human;human;human;human) (UniProt Q13415+Q13416+Q9UBD5+O43929+O43913+Q9Y5N6+Q99741+Q9H211+P49736+P25205+P33991+P33992+Q14566+P33993); assay: bead pull-down (pre-RC assay); conditions: ATP, high-salt wash; CDT1 form inferred; 25 mM HEPES-KOH pH 7.5, 250 mM KGlu, 1 mM DTT, 4 mM MgOAc, 0.1% Triton X-100, 1 mM ATP or ATPgS, 30 C; high-salt wash adds 300 mM NaCl; in-solution: …; scale: fold higher hMCM2-7 signal than without hORC6
[2] = biological target: hORC1-5;hCDC6;hCDT1deltaN;hMCM2-7 (human;human;human;human) (UniProt Q13415+Q13416+Q9UBD5+O43929+O43913+Q99741+Q9H211+P49736+P25205+P33991+P33992+Q14566+P33993); assay: bead pull-down (pre-RC assay); conditions: ATP, high-salt wash, no hORC6; CDT1 form inferred; 25 mM HEPES-KOH pH 7.5, 250 mM KGlu, 1 mM DTT, 4 mM MgOAc, 0.1% Triton X-100, 1 mM ATP or ATPgS, 30 C; high-salt wash adds 300 mM NaCl; in-solution: …; scale: fold reduction of hMCM2-7 signal vs with hORC6
[3] = biological target: budding yeast MCM2-7 complex (budding yeast) (UniProt P29469); assay: negative-stain EM (2D class averages); eluates of pre-RC reactions with ATP washed with 300 mM NaCl (high salt); complexes on DNA

| percent of particles in double-hexamer class averages [3] [%] | Substance | binding signal [1] | binding signal [2] |
| --- | --- | --- | --- |
|  | lamin B2 origin DNA for pre-RC / hOCCM (2 or 3 kbp) | 1.8 | 1.8 |
| 91 | budding yeast MCM2-7 complex, P29469 1-868; P24279 1-971; P30665 1-933; P29496 1-775; P53091 1-1017; P38132 1-845 |  |  |
